Data on two molecules can be found in patent US20240174750A1 (VIRTUOSO BINCO, published 2024).

Test [1] concerns the target T1, extracellular domain (ECD) of human CD47 (19aa-139aa) with C-terminal 6xHis tag (human, UniProt Q08722 19-139).
T1 construct: also called recombinant CD47; recombinant human CD47
In words: ELISA, coated recombinant CD47; EC50 as grade, legend the 6th table, row 26. A general note: In an ELISA, binding on a coated surface is turned into a signal by an enzyme label.
Experimental: A 96-well plate was coated overnight at 4° C. with 1 μg/ml recombinant CD47. After washing 3 times, the plate was blocked with 300 μL 1% BSA in PBST at 37° C. for 1 hour. Serially diluted antibodies were added and incubated at 37° C. for 1 hour. The plate was then washed 4 times with PBST and incubated with 1:5000 diluted 2nd antibody (Sigma, Cat #A0293) at 37° C. for 1 hour.

Test [2] deals with T1, extracellular domain (ECD) of human …. Kind of test: SPR, Biacore 8K, antibody captured by anti-human Fc, monomeric CD47 ECD injected, 25 C, 1:1 Langmuir. On the technique in general: SPR reads the build-up and loss of mass on a sensor chip optically.
Experimental: Furthermore, binding kinetics measurements of the anti-CD47 antibodies were not affected by antibody valency in the SPR assays because antibodies were immobilized and challenged with monomeric antigens. SPR was performed on a Biacore 8K instrument (GE Healthcare). Antibodies were captured on Biacore Series S CM5 sensor chips coated with a monoclonal mouse anti-human IgG (Fc) antibody (GE Healthcare human antibody capture kit). Serial 3-fold dilutions of CD47 ECD antigen were injected at a flow rate of 30 μL/min. Each sample was analyzed with 1 min association and 10 min dissociation at room temperature (25° C.). After each injection, the chip was regenerated using 3M MgCl₂. A 1:1 Langmuir model of simultaneous fitting of kon and koff was used for kinetics analysis.
Test [3] addresses T2, CD47 on the surface of CD47+ cells (human, UniProt Q08722 19-323).
T2 construct: whole, on cells; also called CD47+ cell lines; CD47 on Raji cells, HCT-15 cells, human red blood cells (RBCs), human platelets
Kind of test: flow cytometry on CD47+ cell lines; EC50 as grade, legend the 7th table, row 26. (In flow cytometry, cells or beads pass a laser one at a time.)
Experimental: Antibody binding to CD47+ cell lines was quantified by flow cytometry. Harvested cells were centrifuged at 2000 rpm for 5 min, resuspended in 10-15 mL ice-cold culture medium, and then counted. Cells were resuspended in blocking buffer (PBS plus 2% FBS) at a concentration of 3×10⁶ cells/mL. 100 μL of the cell suspension was dispensed into each well of a 96-well plate. Purified antibodies were diluted to the desired concentrations with blocking buffer and 100 μL of diluted antibodies were added to the well and incubated for 1 hour at 4° C. The cells were then washed 3 times with PBS plus 2% FBS. […] The cells were then washed 3 times with 200 μL PBS by centrifuging at 2000 rpm for 5 min. After the last wash, the cells were resuspended in 300 μL cold PBS and analyzed on a FACSVerse™ (BD Biosciences) flow cytometer.

Test [4] deals with T2, CD47 on the surface of CD47+ cells. In words: flow cytometry, competition with SIRPA-mIgG2a on CD47+ tumor cells; IC50 as grade, legend the 8th table, row 26.
Experimental: Tumor cells were harvested, centrifuged, and then resuspended in FACS buffer (PBS plus 2% FBS) at a concentration of 2×10⁶ cells/mL. 100 μL of the cell suspension was dispensed into each well of a 96-well plate. The plate was centrifuged for 5 min and 300×g, and the supernatants were discarded. […] After washing twice with FACS buffer, the plates were resuspended with 300 μL FACS buffer and analyzed by flow cytometry.

B1: R.18B9 (antibody, human IgG1, kappa, V domains shown)
VH: QSLEESGGDLVKPGASLTLTCKASGFSFNSGYMCWVRQAPGKGLEWIACIYAGSSGKTYYASWATGRFTISKTSSTTVTLQMTSLTVADTATYFCARDDGGTYYTDYLYLWGPGTLVTVSS
VL: DVVMTQTPASVEAAVGGTVTIKCQASEGISSYLSWYQQKPGQPPKLLIYKASTLTSGVPSRFKGSGSGTDFTLTISDLESADAATYYCQCTYGSSGSSGYGAAFGGGTEVVVKR
notes: Chimeric: rabbit variable domains, human IgG1 and human kappa constant regions; also called Chimeric antibody 18B9
Regarding B1, the concentration for a half-maximal effect (EC50) lay within 10 to 100 pM in test [1] and 500 to 5000 pM in test [3]. The molecule also showed a dissociation constant (Kd) in test [2] of 10000 to 100000 pM. Besides, in test [4], the IC50 is 100 to 1000 pM.

B2: M.1D15E11 (antibody, human IgG1, kappa, V domains shown)
VH: EVQLQQSGPELVKPGAPVKMSCKASGYTFTSYVMHWVKQKPGQGLEWIGYIDPYNDGTKYNEKFKGKATLTSDKSSSTAYMELSSLTSEDSAVYYCSRGGMARRSFDYWGQGTTLTVSS
VL: DIQMTQSPASQSASLGESVTITCLASQTIGTWLTWYQQKPGKSPQLLIYAATTLADGVPSRFSGSGSGTKFSFKISSLQAEDFVSYYCQQLYSTPWTFGGGTKLEIKR
notes: Chimeric: mouse variable domains, human IgG1 and human kappa constant regions; also called Chimeric antibody 1D15E11
For the molecule B2, the EC50 in test [1] fell in the range of 10 to 100 pM; in test [3], 100 to 500 pM. This molecule showed a Kd in test [2] of 1000 to 10000 pM. In addition, the IC50 in test [4] fell in the range of 100 to 1000 pM.

As usually defined, the EC50 is the concentration at which the effect is half-maximal. As a reminder, the Kd is the constant that tells how readily two partners part at equilibrium. A high value points to a looser complex. What is called IC50 is the concentration needed to halve the response being measured. Higher therefore signals weaker potency in that assay.
